The values below come from patent publication US8431365B2, “β1,3-N-acetyl-D-galactosamine transferase protein, nucleic acid encoding the same and method of examining canceration using the same” (National Institute of Advanced Industrial Science and …, priority 2003, dated 2013).

What all share (format): biochemical
Data set [1] concerns the target T1, human G34 protein (Homo sapiens, UniProt Q8NCR0).
T1 construct: made in house; host or cells: Sf21 insect cells (baculovirus, pFBIF-G34A)
T1 sequence (Q8NCR0 36-500): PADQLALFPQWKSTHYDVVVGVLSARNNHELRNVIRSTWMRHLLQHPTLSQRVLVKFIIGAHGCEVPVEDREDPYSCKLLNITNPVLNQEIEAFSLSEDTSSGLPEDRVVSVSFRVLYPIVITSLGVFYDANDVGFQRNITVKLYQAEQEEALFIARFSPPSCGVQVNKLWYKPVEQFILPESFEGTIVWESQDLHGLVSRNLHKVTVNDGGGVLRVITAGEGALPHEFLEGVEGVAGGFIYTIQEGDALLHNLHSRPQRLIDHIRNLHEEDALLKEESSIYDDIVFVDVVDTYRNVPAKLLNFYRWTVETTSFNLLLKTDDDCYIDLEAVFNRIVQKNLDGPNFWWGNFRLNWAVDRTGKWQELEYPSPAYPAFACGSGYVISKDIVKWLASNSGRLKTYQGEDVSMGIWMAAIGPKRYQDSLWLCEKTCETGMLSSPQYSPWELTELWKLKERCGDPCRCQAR
As to the kind of experiment: Screening of GalNAc transferase activity (acceptor substrate specificity, monosaccharide acceptors). The settings on record: 10 nmol acceptor, MES pH 6.5, MnCl2 10 mM, 37° C. 16 hours. The text has this: The following reaction system was used for examining the G34 enzyme protein for its acceptor substrate specificity in its GalNAc transfer activity.
In the reaction solutions shown below, each of the following was used at 10 nmol as an acceptor substrate: pNp-α-Gal, oNp-β-Gal, Bz-α-GlcNAc, pNp-β-GlcNAc, Bz-α-GalNAc, pNp-β-GalNAc, pNp-α-Glc, pNp-β-Glc, pNp-β-GlcA, pNp-α-Fuc, pNp-α-Xyl, pNp-β-Xyl and pNp-α-Man (all purchased from SIGMA), wherein “Gal” represents a D-galactose residue, “Xyl” represents a D-xylose residue, “Fuc” represents a […] residue, “Man” represents a D-mannose residue and “GlcA” represents a glucuronic acid residue.
Each reaction solution was prepared as follows (final concentrations in parentheses): each substrate (10 nmol), MES (2-morpholinoethanesulfonic acid) (pH 6.5, 50 mM), MnCl2 (10 mM), Triton X-100 (trade name) (0.1%), UDP-GalNAc (2 mM) and UDP-[^14C]GlcNAc (40 nCi) were mixed and supplemented with 5 μl G34 enzyme solution, followed by dilution with H2O to a total volume of 20 μl (see Table 1).
The above reaction mixtures were each reacted at 37° C. for 16 hours. After completion of the reaction, 200 μl H2O was added and each mixture was lightly centrifuged to obtain the supernatant. […] The eluate was mixed with 5 ml liquid scintillator ACSII (Amersham Biosciences) and measured for the amount of radiation with a scintillation counter (Beckman Coulter).

Data set [2] addresses T1, human G34 protein. As to the kind of experiment: Time course of G34 enzymatic activity with Bz-β-GlcNAc as acceptor.
Data set [3] deals with T1, human G34 protein. Kind of data set: Optimum buffer and optimum pH for GalNAc transferase activity of G34. The settings on record: acceptor pNp-β-GlcNAc. As to the method: The following reaction system was used for examining the optimum buffer and pH for the GalNAc transferase activity of G34. The acceptor substrate used was pNp-β-GlcNAc.
Any one of the following buffers was used (final concentrations in parentheses): MES (2-morpholinoethanesulfonic acid) buffer (pH 5.5, 5.78, 6.0, 6.5 and 6.75, 50 mM), sodium cacodylate buffer (pH 5.0, 5.6, 6.0, 6.2, 6.6, 6.8, 7.0, 7.2, 7.4 and 7.5, 25 mM) and N-[2-hydroxyethyl]piperazine-N′-[2-ethanesulfonic acid](HEPES) buffer (pH 6.75, 7.00, 7.30, 7.40 and 7.50, 14 mM). The substrate (10 nmol), MnCl2 (10 mM), Triton CF-54 (trade name) (0.3%), UDP-GalNAc (2 mM) and […] (40 nCi) were mixed and supplemented with 5 μl G34 enzyme solution, followed by dilution with H2O to a total volume of 20 μl.
The above reaction mixtures were each reacted at 37° C. for 16 hours. After completion of the reaction, 200 μl H2O was added and each mixture was lightly centrifuged to obtain the supernatant. The supernatant was passed through a Sep-Pak plus C18 Cartridge (Waters), which had been washed once with 1 ml methanol and twice with 1 ml H2O and then equilibrated, to allow the substrate and product in the supernatant to adsorb to the cartridge. After washing the cartridge twice with 1 ml H2O, the adsorbed substrate and product were eluted with 1 ml methanol. The eluate was mixed with 5 ml liquid scintillator ACSII (Amersham Biosciences) and measured for the amount of radiation with a scintillation counter (Beckman Coulter).

Where [4] appears, read: sodium cacodylate buffer pH 5.0.
[5] abbreviates: sodium cacodylate buffer pH 5.6.
[6] abbreviates: sodium cacodylate buffer pH 6.0.
[7] abbreviates: sodium cacodylate buffer pH 6.2.
The mark [8] stands for this setting: sodium cacodylate buffer pH 6.6.
[9] abbreviates: sodium cacodylate buffer pH 6.8.
The mark [10] stands for this setting: sodium cacodylate buffer pH 7.0.
The mark [11] stands for this setting: sodium cacodylate buffer pH 7.2.
[12] abbreviates: sodium cacodylate buffer pH 7.4.

In the case of `CC(=O)N[C@H]1[C@H](Oc2ccc([N+](=O)[O-])cc2)O[C@H](CO)[C@@H](O)[C@@H]1O` [pNp-β-GlcNAc], the “GalNAc transfer to acceptor substrate” value on human G34 protein [1] is recorded as “ability to transfer GalNAc to pNp-β-GlcNAc”.

B1: G34: human β1,3-N-acetyl-D-galactosaminyltransferase protein (SEQ ID NO: 2), expressed FLAG-tagged from amino acid 36 to the C-terminal end (protein, listed as Homo sapiens)
chain: T1 sequence (Q8NCR0 36-500)
modifications: FLAG tag
As to B1, the “Area (%)” value with human G34 protein [2] (reaction time 1 hour) is 0%; in the data set with human G34 protein [2] (reaction time 2 hours) it was 2.388%; in the data set with human G34 protein [2] (reaction time 4 hours) it was 6.195%; with human G34 protein [2] (reaction time 16 hours) it was 13.719%. In addition, the “+ (amount of radiation)” value with human G34 protein [3] (HEPES buffer pH 6.75) was determined as 4894; with human G34 protein [3] (HEPES buffer pH 7.00), 4912; with human G34 protein [3] (HEPES buffer pH 7.30), 4294; in the data set with human G34 protein [3] (HEPES buffer pH 7.40), 6630; with human G34 protein [3] (HEPES buffer pH 7.50), 6895; with human G34 protein [3] (MES buffer pH 5.50), 3735. Besides, the “+ (amount of radiation)” value worked out at 3755 with human G34 protein [3] (MES buffer pH 5.78); 2514 with human G34 protein [3] (MES buffer pH 6.00); 1981 with human G34 protein [3] (MES buffer pH 6.50); 3289 with human G34 protein [3] (MES buffer pH 6.75); 6042 with human G34 protein [3] (setting [4]); 3353 in the data set with human G34 protein [3] (setting [5]). Besides, the “+ (amount of radiation)” value with human G34 protein [3] (setting [6]) turned out to be 2689; with human G34 protein [3] (setting [7]) it was 907; with human G34 protein [3] (setting [8]), 1093; with human G34 protein [3] (setting [9]), 2488; with human G34 protein [3] (setting [10]), 4965; with human G34 protein [3] (setting [11]), 4377. The “+ (amount of radiation)” value with human G34 protein [3] (setting [12]) was found to be 4930. Besides, the “HEPES (+ minus −)” value with human G34 protein [3] (HEPES buffer pH 6.75) is given as 4745; in the data set with human G34 protein [3] (HEPES buffer pH 7.00), 4791; with human G34 protein [3] (HEPES buffer pH 7.30), 4167; with human G34 protein [3] (HEPES buffer pH 7.40) it was 6510; with human G34 protein [3] (HEPES buffer pH 7.50), 6655. Further, the “MES (+ minus −)” value worked out at 3538 with human G34 protein [3] (MES buffer pH 5.50); 3571 with human G34 protein [3] (MES buffer pH 5.78); 2373 in the data set with human G34 protein [3] (MES buffer pH 6.00); 1247 in the data set with human G34 protein [3] (MES buffer pH 6.50); 3153 in the data set with human G34 protein [3] (MES buffer pH 6.75). For the same molecule, the “Sodium cacodylate (+ minus −)” value in the data set with human G34 protein [3] (setting [4]) turned out to be 5838; with human G34 protein [3] (setting [5]), 3194; in the data set with human G34 protein [3] (setting [6]), 2429; with human G34 protein [3] (setting [7]), 769; with human G34 protein [3] (setting [8]) it was 957; with human G34 protein [3] (setting [9]), 2230. Besides, the “Sodium cacodylate (+ minus −)” value with human G34 protein [3] (setting [10]) is reported as 4706; with human G34 protein [3] (setting [11]) it was 4068; with human G34 protein [3] (setting [12]) it was 4626.
